Drawing on patent publication US20250206836A1, this text covers EC50 (read off the curve) for one substance.

This test addresses C1q human protein (human) (UniProt P02745). Put plainly: ELISA, plates coated with the antibody, C1q human protein titrated (the concentration axis is that of C1q), Mean Absorbance (OD Units).

Chain of C1q human protein (human) (P02745 23-245 limits assumed, chain 1 of 3): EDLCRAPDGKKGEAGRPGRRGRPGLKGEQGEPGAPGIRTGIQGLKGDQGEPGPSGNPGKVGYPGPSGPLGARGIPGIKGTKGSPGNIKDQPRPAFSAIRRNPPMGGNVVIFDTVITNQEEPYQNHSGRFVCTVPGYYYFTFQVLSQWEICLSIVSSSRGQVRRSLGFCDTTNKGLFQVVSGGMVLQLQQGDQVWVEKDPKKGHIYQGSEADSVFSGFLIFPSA
Chain of C1q human protein (human) (P02746 28-253 limits assumed, chain 2 of 3, further chain): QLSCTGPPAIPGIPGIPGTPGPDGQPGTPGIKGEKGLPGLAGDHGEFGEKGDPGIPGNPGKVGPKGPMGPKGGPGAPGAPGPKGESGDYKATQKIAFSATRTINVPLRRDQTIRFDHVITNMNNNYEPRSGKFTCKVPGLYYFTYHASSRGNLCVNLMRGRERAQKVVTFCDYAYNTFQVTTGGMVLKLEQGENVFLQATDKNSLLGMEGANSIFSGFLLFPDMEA
Chain of C1q human protein (human) (P02747 29-245 limits assumed, chain 3 of 3, further chain): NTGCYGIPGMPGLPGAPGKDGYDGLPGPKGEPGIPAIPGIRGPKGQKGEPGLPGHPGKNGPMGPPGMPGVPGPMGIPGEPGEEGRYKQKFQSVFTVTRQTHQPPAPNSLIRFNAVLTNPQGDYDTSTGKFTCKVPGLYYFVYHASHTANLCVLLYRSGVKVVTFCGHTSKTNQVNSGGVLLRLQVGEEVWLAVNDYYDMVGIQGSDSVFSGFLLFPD

The EC50 (read off the curve) is the midpoint of the concentration-response curve. Low readings indicate an effect from little substance, high ones a need for much substance. Remicade (pos. control) (antibody) had an EC50 (read off the curve) of 20 µg/mL.
